Reference: article PMC2670497

Columns and labels:
[1] = molecular target: vimentin expressed from pCMV-SPORT6-vimentin in MFT-16 vim-/- cells (UniProt P08670); assay: flow cytometry on cells; cells transfected with pCMV-SPORT6-vimentin or mock-transfected, 24 hours later incubated with wildtype CPMV at 5x10^5 virions per cell for 2 hours; percent CPMV-positive cells; data not shown
[2] = molecular target: surface vimentin on HeLa cells (human (endogenous in HeLa)) (UniProt P08670); assay: as above
[3] = molecular target: purified recombinant vimentin protein (UniProt P08670); assay: ELISA; 1 ug vimentin immobilised overnight on Immulon 2 HB plates in 0.1 M KPO4 pH 7.0; varying molar concentrations of CPMV, 1 hour, room temperature; detected with anti-CPMV polyclonal antibody; avidity not ruled out

## Cowpea mosaic virus (CPMV) particles, wild type (complex)
[1]
  percent of cells CPMV-positive: 1.21%
[2]
  percent of cells CPMV-positive: 5.36%
[3]
  EC50: 3.72 nM
